Measurements as given in patent US20240285753A1.

Assays:
[1] = target: synthetic fusion peptide (SARS-CoV-2 spike residues 808-833) (SARS-CoV-2), P0DTC2; experiment: ELISA, coated antigen, mAb titrated
[2] = target: synthetic stem helix peptide (SARS-CoV-2 spike residues 1140-1164) (SARS-CoV-2), P0DTC2; experiment: ELISA, peptide adsorbed on the plate, mAb titrated

Row | Binder | EC50 (read off the curve) [1] [µg/mL] | EC50 (read off the curve) [2] [µg/mL]
1 | COV44-79 (antibody) chain 1: QVQLVESGGGVVQPGRSLRLSCAASGLTFSGYAMHWVRQAPGKGLEWVAVISRDARNKYYADSVKGRFTISRDNSKKTVYLEMNSLRVEDTAVYYCAILIIPGITEPGSPDALDIWGQGTMVSVSS chain 2: DIQMTQSPSSMSASVGDRVTITCRASQDISKWLAWYQQRPGKAPKLLIYAASSLQSGVPSRFSGSGSGTDFTLTISSLQPEDFATYYCQQASSFPWSITFGQGTRLEIR | 0.7 | –
2 | Cov89-22 (antibody) chain 1: QEQLVQSGAEVKKPGASVKVSCKSSGFTFSYFYLHWVRQAPGQGLEWMGIINPRGDGTRYAQKFQGRVTMTRDASTGTLYMELRSLRSEDTAVYYCARGADHGAFDIWGQGTMVTVSS chain 2: EIVLTQSPGTLSLSPGERATLSCRASQSVRRNYFAWYQQKRGQAPRLLIYDASTRATGIPDRFSGSGSGTDFTLTISRLEPEDFAVYYCQQYDSSPPMYIFGQGTKLEIK | – | 0.02
3 | Cov30-14 (antibody) chain 1: QVQLVQSGAEVKKPGASVKVSCQTSGYTFTSYYMHWVRQAPGQGLEWMGLITPSGDDTYYAQRFQGRVTMTRDTSTSPTYMELSSLTSEDTAVYYCAKMSRAGGFDVWGQGTLVTVSS chain 2: EVVLTQSPGTLSLSPGERATLSCRASQSITGRYLAWYQQKPGQAPRLLMYGESSRVTGIPDRFSGGGSGTDFTLTISRLEPEDFAVYYCQHFASSPPTYTFGQGTKLEIR | – | 0.03
